Experiments:
[1] = Stability (formation of dimers and polymers) of B29-N^ε-myristoyl-des(B30) human insulin solutions, varying NaCl, mannitol and phenol (Example V); format: physicochemical; conditions: pH 7.4
Procedure: Solutions containing 0.6 mM B29-N^ε -myristoyl-des(B30) human insulin, 1.5 or 4.0 mg/ml phenol, 5 mM sodium phosphate, 13.1 μg/ml Zn, and varying amounts of sodium chloride and mannitol were prepared. pH was adjusted to 7.4. Stability data (formation of dimers and polymers) after storage at 25° C. for 13 weeks or 37° C. for 8 weeks are presented in the following table 7.

[2] = Stability (formation of dimers and polymers) of B29-N^ε-myristoyl des(B30) human insulin solutions, glycerol or mannitol, varying NaCl (Example VI); format: physicochemical; conditions: pH 7.5
Procedure: Solutions containing 0.6 mM B29-N^ε -myristoyl des(B30) human insulin, 1.5 mg/ml phenol and 1.72 mg/ml m-cresol, 16 mg/ml glycerol or 36 mg/ml mannitol, 13.1 μg/ml Zn, 7 mM sodium phosphate and varying amounts of sodium chloride were prepared. pH was adjusted to 7.5. Stability data (formation of dimers and polymers) after storage at 25° C. for 13 weeks or 37° C. for 8 weeks are presented in the following table 8.

For “B29-N^ε -myristoyl-des(B30) human insulin”, the “Di- & polymers (%) formed” value ([1]; 8 weeks at 37° C., NaCl 20 mM, mannitol 31 mg/ml, phenol 1.5 mg/ml) was 0.77%, the “Di- & polymers (%) formed” value ([1]; 8 weeks at 37° C., NaCl 20 mM, mannitol 31 mg/ml, phenol 4.0 mg/ml) was 0.77% and the “Di- & polymers (%) formed” value ([1]; 8 weeks at 37° C., NaCl 50 mM, mannitol 22 mg/ml, phenol 1.5 mg/ml) was 0.71%. The “Di- & polymers (%) formed” value ([1]; 8 weeks at 37° C., NaCl 50 mM, mannitol 22 mg/ml, phenol 4.0 mg/ml) was 0.71%, the “Di- & polymers (%) formed” value ([1]; 8 weeks at 37° C., NaCl 75 mM, mannitol 13 mg/ml, phenol 1.5 mg/ml) was 0.65% and the “Di- & polymers (%) formed” value ([1]; 8 weeks at 37° C., NaCl 75 mM, mannitol 13 mg/ml, phenol 4.0 mg/ml) was 0.70%. For the same substance, the “Di- & polymers (%) formed” value ([1]; 8 weeks at 37° C., NaCl 100 mM, mannitol 5 mg/ml, phenol 1.5 mg/ml) was 0.66%, the “Di- & polymers (%) formed” value ([1]; 8 weeks at 37° C., NaCl 100 mM, mannitol 5 mg/ml, phenol 4.0 mg/ml) was 0.68% and the “Di- & polymers (%) formed” value ([1]; 13 weeks at 25° C., NaCl 20 mM, mannitol 31 mg/ml, phenol 1.5 mg/ml) was 0.40%. For the same substance, the “Di- & polymers (%) formed” value ([1]; 13 weeks at 25° C., NaCl 20 mM, mannitol 31 mg/ml, phenol 4.0 mg/ml) was 0.42%, the “Di- & polymers (%) formed” value ([1]; 13 weeks at 25° C., NaCl 50 mM, mannitol 22 mg/ml, phenol 1.5 mg/ml) was 0.35% and the “Di- & polymers (%) formed” value ([1]; 13 weeks at 25° C., NaCl 50 mM, mannitol 22 mg/ml, phenol 4.0 mg/ml) was 0.37%. The “Di- & polymers (%) formed” value ([1]; 13 weeks at 25° C., NaCl 75 mM, mannitol 13 mg/ml, phenol 1.5 mg/ml) was 0.34%, the “Di- & polymers (%) formed” value ([1]; 13 weeks at 25° C., NaCl 75 mM, mannitol 13 mg/ml, phenol 4.0 mg/ml) was 0.39% and the “Di- & polymers (%) formed” value ([1]; 13 weeks at 25° C., NaCl 100 mM, mannitol 5 mg/ml, phenol 1.5 mg/ml) was 0.31%. For the same substance, the “Di- & polymers (%) formed” value ([1]; 13 weeks at 25° C., NaCl 100 mM, mannitol 5 mg/ml, phenol 4.0 mg/ml) was 0.37%, the “Di- & polymers (%) formed” value ([2]; 8 weeks at 37° C., NaCl 5 mM, glycerol 16 mg/ml) was 2.55% and the “Di- & polymers (%) formed” value ([2]; 8 weeks at 37° C., NaCl 5 mM, mannitol 36 mg/ml) was 2.28%. For the same substance, the “Di- & polymers (%) formed” value ([2]; 8 weeks at 37° C., NaCl 10 mM, glycerol 16 mg/ml) was 2.25%, the “Di- & polymers (%) formed” value ([2]; 8 weeks at 37° C., NaCl 10 mM, mannitol 36 mg/ml) was 1.90% and the “Di- & polymers (%) formed” value ([2]; 8 weeks at 37° C., NaCl 20 mM, glycerol 16 mg/ml) was 1.82%. The “Di- & polymers (%) formed” value ([2]; 8 weeks at 37° C., NaCl 20 mM, mannitol 36 mg/ml) was 1.61%, the “Di- & polymers (%) formed” value ([2]; 8 weeks at 37° C., NaCl 30 mM, glycerol 16 mg/ml) was 1.83% and the “Di- & polymers (%) formed” value ([2]; 8 weeks at 37° C., NaCl 40 mM, glycerol 16 mg/ml) was 1.78%. The “Di- & polymers (%) formed” value ([2]; 8 weeks at 37° C., NaCl 40 mM, mannitol 36 mg/ml) was 1.56%, the “Di- & polymers (%) formed” value ([2]; 8 weeks at 37° C., NaCl 50 mM, glycerol 16 mg/ml) was 1.68% and the “Di- & polymers (%) formed” value ([2]; 13 weeks at 25° C., NaCl 5 mM, glycerol 16 mg/ml) was 1.08%. For the same substance, the “Di- & polymers (%) formed” value ([2]; 13 weeks at 25° C., NaCl 5 mM, mannitol 36 mg/ml) was 1.05%, the “Di- & polymers (%) formed” value ([2]; 13 weeks at 25° C., NaCl 10 mM, glycerol 16 mg/ml) was 0.98% and the “Di- & polymers (%) formed” value ([2]; 13 weeks at 25° C., NaCl 10 mM, mannitol 36 mg/ml) was 0.84%. For the same substance, the “Di- & polymers (%) formed” value ([2]; 13 weeks at 25° C., NaCl 20 mM, glycerol 16 mg/ml) was 0.80%, the “Di- & polymers (%) formed” value ([2]; 13 weeks at 25° C., NaCl 20 mM, mannitol 36 mg/ml) was 0.71% and the “Di- & polymers (%) formed” value ([2]; 13 weeks at 25° C., NaCl 30 mM, glycerol 16 mg/ml) was 0.80%. The “Di- & polymers (%) formed” value ([2]; 13 weeks at 25° C., NaCl 40 mM, glycerol 16 mg/ml) was 0.79%, the “Di- & polymers (%) formed” value ([2]; 13 weeks at 25° C., NaCl 40 mM, mannitol 36 mg/ml) was 0.70% and the “Di- & polymers (%) formed” value ([2]; 13 weeks at 25° C., NaCl 50 mM, glycerol 16 mg/ml) was 0.72%.
